Results on 13 molecules are retold here after patent US20240270866A1 (Alector, published 2024).

The target in experiment [1] is T1, mouse SIRPA overexpressed on CHO cells (mouse, UniProt P97797 32-513).
T1 construct: also called CHO-muSIRPA
T1 sequence: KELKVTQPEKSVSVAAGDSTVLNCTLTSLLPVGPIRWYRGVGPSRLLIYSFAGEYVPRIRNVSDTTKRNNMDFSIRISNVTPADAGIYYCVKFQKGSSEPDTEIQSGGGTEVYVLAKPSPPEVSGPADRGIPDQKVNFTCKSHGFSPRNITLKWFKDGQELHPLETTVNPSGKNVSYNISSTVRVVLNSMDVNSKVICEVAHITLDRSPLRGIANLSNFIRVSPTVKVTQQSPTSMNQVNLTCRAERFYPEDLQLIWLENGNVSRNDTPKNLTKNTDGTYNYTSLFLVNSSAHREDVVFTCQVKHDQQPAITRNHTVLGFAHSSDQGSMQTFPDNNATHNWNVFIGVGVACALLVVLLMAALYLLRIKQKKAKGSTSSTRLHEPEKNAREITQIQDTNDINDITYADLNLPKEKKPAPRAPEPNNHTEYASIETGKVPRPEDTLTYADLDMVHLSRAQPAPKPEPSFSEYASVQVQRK
In words: flow, CHO-muSIRPA.
Procedure: Initial characterization of anti-SIRPA antibodies of the present disclosure involved determining their ability to bind cell lines overexpressing human or mouse SIRPA. Cells were harvested, plated at 10⁶/ml in a 96 well plate, washed, and incubated in 100 ul PBS containing 1 ug/ml Mab for 1 hour in ice. Cells were then washed twice and incubated in 100 ul PBS containing 5 ug/ml PE-conjugated secondary antibody for 30 minutes in ice. Cells were washed twice in cold PBS and acquired on a BD FACS Canto. Data analysis and calculation of mean fluorescence intensity (MFI) values or % positive cells was performed with FlowJo® (TreeStar) software version 10.0.7.

Experiment [2] addresses T1, mouse SIRPA overexpressed on CHO cells. In words: flow, CHO-muSIRPA. This is another data set of the same source.
For experiment [3], the target named is T2, Mouse SIRPA D1 Fc (mouse, UniProt P97797 32-150, limits assumed).
T2 sequence: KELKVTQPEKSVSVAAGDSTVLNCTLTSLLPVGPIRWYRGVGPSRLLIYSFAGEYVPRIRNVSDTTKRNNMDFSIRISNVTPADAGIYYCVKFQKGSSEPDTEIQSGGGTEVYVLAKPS
In words: ForteBio IgG avid.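 Further: antibody IgG captured on AHQ biosensors, then 100 nM Fc-fused SIRP antigen applied for 3 min, followed by 3 min buffer dissociation, kinetics fitted to a 1:1 model.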

Experiment [4] addresses Human SIRPb D1 Fc (human, UniProt O00241 30-148, limits assumed). The experiment in a line: ForteBio IgG avid.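 Further: antibody IgG captured on AHQ biosensors, then 100 nM Fc-fused SIRP antigen applied for 3 min, followed by 3 min buffer dissociation, kinetics fitted to a 1:1 model.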
Experiment [5] concerns the target T3, human SIRPA overexpressed on CHO cells (human, UniProt P78324 31-504).
T3 construct: also called CHO-huSIRPA
The experiment in a line: flow, CHO-huSIRPA.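 Further: Anti-SIRPA antibodies applied at 1 µg/mL for 1 h on ice, binding read by flow cytometry using a PE-labelled secondary antibody.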

Chain of Human SIRPb D1 Fc (O00241 30-148 limits assumed): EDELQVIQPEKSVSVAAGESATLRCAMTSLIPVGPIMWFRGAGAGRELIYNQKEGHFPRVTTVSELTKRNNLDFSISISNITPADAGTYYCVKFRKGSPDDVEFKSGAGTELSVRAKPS

B1: SA-46 (antibody, V domains shown)
VH: EVQLLESGGGLVQPGGSLRLSCAASGFTFSTYAMSWVRQAPGKGLEWVSAISGSGGSTYYADSVKGRFTISRDNSKNTLYLQMNSLRAEDTAVYYCARESYDSSLHYYGMDVWGQGTTVTVSS
VL: EIVLTQSPGTLSLSPGERATLSCRASQSVSSSYLAWYQQKPGQAPRLLIYGASSRATGIPDRFSGSGSGTDFTLTISRLEPEDFAVYYCQQHFSLPPTFGGGTKVEIK
notes: IgG
Regarding B1, the “relative MFI” value in experiment [1] is 0.476 fold over background. The results for the binding result in experiment [2] and in experiment [3] were “no binding (tested: 1 ug/ml)” and “no binding (tested: 100 nM)”, respectively.

B2: SA-10 (antibody, V domains shown)
VH: EVQLVESGGGLVQPGRSLRLSCAASGFTFDDYAMHWVRQAPGKGLEWVSGITWNSGSIGYADSVKGRFTISRDNAKNSLYLQMNSLRAEDTALYYCAKGKQYSANYFDYWGQGTLVTVSS
VL: DIQMTQSPSTLSASVGDRVTITCRASQSISSWLAWYQQKPGKAPKLLIYEASSLESGVPSRFSGSGSGTEFTLTISSLQPDDFATYYCQQDNSLPYTFGGGTKVEIK
notes: IgG
Consider B2, for which the “relative MFI” value in experiment [1] is 0.583 fold over background; in experiment [5] it was 4.62 fold over background. The binding result in experiment [2] is on record as “no binding (tested: 1 ug/ml)”; in experiment [3], “no binding (tested: 100 nM)”; in experiment [4], “no binding (tested: 100 nM)”.

B3: SA-55 (antibody, V domains shown)
VH: EVQLVESGGGLVQPGGSLRLSCAASGFTFSSYWMSWVRQAPGKGLEWVANIKQDGSEKYYVDSVKGRFTISRDNAKNSLYLQMNSLRAEDTAVYYCARGSPYYDAYDFDLWGRGTLVTVSS
VL: DIQLTQSPSTLSASVGDRVTITCRASQAISSWLAWYQQKPGKAPKLLIYDASSLESGVPSRFSGSGSGTEFTLTISSLQPDDFATYYCQQYESFPWTFGGGTKVEIK
notes: IgG
With B3, the “relative MFI” value in experiment [1] was determined as 0.464 fold over background. In addition, the results for the binding result in experiment [2] and in experiment [3] were “no binding (tested: 1 ug/ml)” and “no binding (tested: 100 nM)”, respectively.

B4: SA-51 (antibody, V domains shown)
VH: QVQLVQSGAEVKKPGSSVKVSCKASGGTFSSYAISWVRQAPGQGLEWMGSIIPIFGTANYAQKFQGRVTITADESTSTAYMELSSLRSEDTAVYYCARGGYAAGTDYYMGVWGKGTTVTVSS
VL: not shown
notes: IgG
On to B4, for which the binding result in experiment [2] is on record as “no binding (tested: 1 ug/ml)”; in experiment [3], “no binding (tested: 100 nM)”.

B5: SA-8 (antibody, V domains shown)
VH: QVQLVESGGGVVQPGRSLRLSCAASGFTFSSYGMHWVRQAPGKGLEWVAVISYDGSNKYYADSVKGRFTISRDNSKNTLYLQMNSLRAEDTAVYYCAKEPRSYWHGYGMDVWGQGTTVTVSS
VL: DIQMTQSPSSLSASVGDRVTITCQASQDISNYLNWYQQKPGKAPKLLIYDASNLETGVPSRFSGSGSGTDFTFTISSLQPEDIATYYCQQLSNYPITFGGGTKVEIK
notes: IgG; also called SA-8 (parental)
For the molecule B5, the “relative MFI” value came out at 0.5 fold over background in experiment [1] and 57.8 fold over background in experiment [5]. Moreover, the binding result in experiment [2] was “no binding (tested: 1 ug/ml)”; in experiment [3], “no binding (tested: 100 nM)”.

B6: SA-9 (antibody, V domains shown)
VH: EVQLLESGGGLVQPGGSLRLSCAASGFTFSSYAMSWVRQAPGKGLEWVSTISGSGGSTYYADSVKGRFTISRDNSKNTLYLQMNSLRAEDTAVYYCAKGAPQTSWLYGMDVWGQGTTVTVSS
VL: DIQMTQSPSSVSASVGDRVTITCRASQGISSWLAWYQQKPGKAPKLLIYAASSLQSGVPSRFSGSGSGTDFTLTISSLQPEDFATYYCQQAYLYPITFGGGTKVENQ
notes: IgG
Regarding B6, the “relative MFI” value in experiment [1] was 0.646 fold over background. The figures for the binding result in experiment [2] and in experiment [3] were “no binding (tested: 1 ug/ml)” and “no binding (tested: 100 nM)”, respectively.

B7: SA-5 (antibody, V domains shown)
VH: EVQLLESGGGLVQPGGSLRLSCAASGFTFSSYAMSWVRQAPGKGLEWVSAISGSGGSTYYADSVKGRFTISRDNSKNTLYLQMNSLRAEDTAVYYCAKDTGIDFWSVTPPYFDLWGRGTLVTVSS
VL: DIQLTQSPSSVSASVGDRVTITCRASQDISSWLAWYQQKPGKAPKLLIYAASSLQSGVPSRFSGSGSGTDFTLTISSLQPEDFATYYCQQGYIFPRTFGGGTKVEIK
notes: IgG; also called SA-5 (parental)
Consider B7, for which the “relative MFI” value in experiment [1] is 0.533 fold over background. In addition, the binding result is on record as “no binding (tested: 1 ug/ml)” in experiment [2] and “no binding (tested: 100 nM)” in experiment [3].

B8: SA-33 (antibody, V domains shown)
VH: QVQLVQSGAEVKKPGSSVKVSCKASGGTFSSYAISWVRQAPGQGLEWMGGIIPIFGTASYAQKFQGRVTITADESTSTAYMELSSLRSEDTAVYYCARDVGMARGDPYGMDVWGQGTTVTVSS
VL: DIQMTQSPSSVSASVGDRVTITCRASQGISSWLAWYQQKPGKAPKLLISAASSLQSGVPSRFSGSGSGTDFTLTISSLQPEDFATYYCLQAYSFPFTFGGGTKVEIK
notes: IgG
On to B8, for which, in experiment [1], the “relative MFI” value was determined as 0.708 fold over background. In addition, the binding result in experiment [2] is “no binding (tested: 1 ug/ml)”; in experiment [3], “no binding (tested: 100 nM)”.

B9: SA-49 (antibody, V domains shown)
VH: EVQLVESGGGLVKPGGSLRLSCAASGFTFSSYSMNWVRQAPGKGLEWVSSISSSSSYIYYADSVKGRFTISRDNAKNSLYLQMNSLRAEDTAVYYCARGAPSMQYSPYYYYGMDVWGQGTTVTVSS
VL: DIQMTQSPSSVSASVGDRVTITCRASQGISSWLAWYQQKPGKAPKLLIYAASSLQSGVPSRFSGSGSGTDFTLTISSLQPEDFATYYCQQVSLYPPTFGGGTKVEIK
notes: IgG
With B9, the “relative MFI” value in experiment [1] worked out at 0.53 fold over background. For the same molecule, the binding result in experiment [2] is listed as “no binding (tested: 1 ug/ml)”; in experiment [3], “no binding (tested: 100 nM)”.

B10: SA-54 (antibody, V domains shown)
VH: QLQLQESGPGLVKPSETLSLTCTVSGGSISSSSYYWGWIRQPPGKGLEWIGSIYYSGSTYYNPSLKSRVTISVDTSKNQFSLKLSSVTAADTAVYYCARGSGIAAADTDGLPMDVWGQGTTVTVSS
VL: DIQMTQSPSSVSASVGDRVTITCRASQGISSWLAWYQQKPGKAPKLLIYAASSLQSGVPSRFSGSGSGTDFTLTISSLQPEDFATYYCQQVYLFPITFGGGTKVEIK
notes: IgG
With B10, in experiment [1], the “relative MFI” value came out at 0.461 fold over background. Also, the values for the binding result in experiment [2] and in experiment [3] were “no binding (tested: 1 ug/ml)” and “no binding (tested: 100 nM)”, respectively.

B11: SA-15 (antibody, V domains shown)
VH: QVQLVQSGAEVKKPGSSVKVSCKASGGTFSSYAISWVRQAPGQGLEWMGGIIPIFGTANYAQKFQGRVTITADESTSTAYMELSSLRSEDTAVYYCARDGSYSYATYWGQGTLVTVSS
VL: EIVLTQSPATLSLSPGERATLSCRASQSVSSYLAWYQQKPGQAPRLLIYDASNRATGIPARFSGSGSGTDFTLTISSLEPEDFAVYYCQQPYNFPLTFGGGTKVEIK
notes: IgG
For B11, the “relative MFI” value was determined as 0.512 fold over background in experiment [1] and 0.768 fold over background in experiment [5]. In addition, the binding result is on record as “no binding (tested: 1 ug/ml)” in experiment [2] and “no binding (tested: 100 nM)” in experiment [3]. Further, in experiment [4], binding was put at a Kd of 28.4 nM.

B12: SA-24 (antibody, V domains shown)
VH: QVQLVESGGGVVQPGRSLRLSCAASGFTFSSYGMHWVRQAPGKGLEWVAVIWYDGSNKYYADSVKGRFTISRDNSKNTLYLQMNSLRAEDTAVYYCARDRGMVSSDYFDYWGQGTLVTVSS
VL: EIVLTQSPATLSLSPGERATLSCRASQSVSSYLAWYQQKPGQAPRLLIYDASNRATGIPARFSGSGSGTDFTLTISSLEPEDFAVYYCQQRLDWPYTFGGGTKVEIK
notes: IgG
As for B12, the “relative MFI” value in experiment [1] was found to be 0.542 fold over background. Moreover, the binding result is “no binding (tested: 1 ug/ml)” in experiment [2] and “no binding (tested: 100 nM)” in experiment [3].

B13: SA-11 (antibody, V domains shown)
VH: EVQLVESGGGLVQPGRSLRISCAASGFTFGDYAMHWVRQAPGKGLEWVSGISWNSGSIGYADSVKGRFTISRDNAKNSLYLQMNSLRAEDTALYYCAKTRYGYYSYDFDLWGRGTLVTVSS
VL: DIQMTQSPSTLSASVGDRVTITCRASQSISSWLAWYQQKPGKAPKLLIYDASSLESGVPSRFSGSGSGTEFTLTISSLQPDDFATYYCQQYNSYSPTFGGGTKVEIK
notes: IgG
For the molecule B13, the “relative MFI” value in experiment [1] is 0.851 fold over background; in experiment [5], 0.972 fold over background. For the same molecule, the results for the binding result in experiment [2], in experiment [3] and in experiment [4] were “no binding (tested: 1 ug/ml)”, “no binding (tested: 100 nM)” and “no binding (tested: 100 nM)”, respectively.
